Test results reported in patent US20260055182A1.

Experiments:
[1] = molecular target: human C1q purified protein (human) (UniProt P02745); assay: SPR (Biacore T200), C1q reversibly immobilised, antibody as analyte
[2] = molecular target: human FcRn / FCGRT&B2M (human) (UniProt P55899); assay: SPR (Biacore T200), pH 6.0, FcRn reversibly immobilised, antibody as analyte
[3] = molecular target: human FcyRIIIA/CD16a (V176) (human) (UniProt P08637); assay: SPR (Biacore 8K+), receptor reversibly immobilised, antibody as analyte
human FcyRIIIA/CD16a (V176) (human), sequence (P08637 17-208 F176V limits assumed): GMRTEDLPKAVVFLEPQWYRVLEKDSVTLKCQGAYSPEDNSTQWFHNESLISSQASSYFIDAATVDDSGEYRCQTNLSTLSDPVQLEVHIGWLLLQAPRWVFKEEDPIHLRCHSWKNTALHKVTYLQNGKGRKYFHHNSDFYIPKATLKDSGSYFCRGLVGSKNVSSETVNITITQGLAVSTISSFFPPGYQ

[4] = molecular target: human FcyRI/CD64 (human) (UniProt P12314); assay: as above
human FcyRI/CD64 (human), sequence (P12314 16-288 limits assumed): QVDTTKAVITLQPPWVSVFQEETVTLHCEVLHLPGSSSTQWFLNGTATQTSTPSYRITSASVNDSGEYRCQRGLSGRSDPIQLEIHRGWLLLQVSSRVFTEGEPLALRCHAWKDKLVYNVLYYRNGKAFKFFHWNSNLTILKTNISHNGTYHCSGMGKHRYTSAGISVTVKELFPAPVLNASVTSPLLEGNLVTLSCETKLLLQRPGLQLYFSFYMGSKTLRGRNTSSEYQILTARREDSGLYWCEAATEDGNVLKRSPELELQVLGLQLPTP

[5] = molecular target: human FcyRIIA/CD32a (H167) (human) (UniProt P12318); assay: as above
human FcyRIIA/CD32a (H167) (human), sequence (P12318 36-218): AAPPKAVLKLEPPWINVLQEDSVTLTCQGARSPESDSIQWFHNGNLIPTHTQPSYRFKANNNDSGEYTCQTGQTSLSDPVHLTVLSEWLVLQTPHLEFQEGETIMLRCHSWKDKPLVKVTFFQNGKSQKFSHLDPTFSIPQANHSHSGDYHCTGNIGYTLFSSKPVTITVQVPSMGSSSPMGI

human C1q purified protein (human), sequence (P02745 23-245, chain 1 of 3): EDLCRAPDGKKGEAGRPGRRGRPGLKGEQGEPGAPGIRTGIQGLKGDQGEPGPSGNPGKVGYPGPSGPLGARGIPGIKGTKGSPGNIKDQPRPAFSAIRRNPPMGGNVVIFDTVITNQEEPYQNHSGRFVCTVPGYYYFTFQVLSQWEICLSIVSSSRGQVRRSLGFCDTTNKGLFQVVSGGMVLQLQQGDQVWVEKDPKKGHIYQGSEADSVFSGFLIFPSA
human C1q purified protein (human), sequence (P02746 28-253, chain 2 of 3, further chain): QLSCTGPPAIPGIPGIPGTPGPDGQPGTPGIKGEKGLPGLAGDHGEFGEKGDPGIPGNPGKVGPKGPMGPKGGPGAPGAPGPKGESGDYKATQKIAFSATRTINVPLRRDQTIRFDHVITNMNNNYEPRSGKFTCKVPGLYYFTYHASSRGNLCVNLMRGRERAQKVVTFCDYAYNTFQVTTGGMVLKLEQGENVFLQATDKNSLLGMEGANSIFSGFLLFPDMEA
human C1q purified protein (human), sequence (P02747 29-245, chain 3 of 3, further chain): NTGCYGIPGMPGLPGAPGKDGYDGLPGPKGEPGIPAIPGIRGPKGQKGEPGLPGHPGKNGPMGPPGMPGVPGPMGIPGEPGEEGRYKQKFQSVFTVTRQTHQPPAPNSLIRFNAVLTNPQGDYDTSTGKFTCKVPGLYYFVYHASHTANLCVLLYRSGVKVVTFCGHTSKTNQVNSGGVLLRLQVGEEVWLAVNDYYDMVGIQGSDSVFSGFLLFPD

Kd [1]: 129 nM
Kd [2]: 384 nM
Kd [3]: 57.9 nM
Kd [4]: 0.0407 nM
Kd [5]: 324 nM
Substance: Mabthera (Rituximab) (antibody)
